Patent publication US7790697B2, “Compositions and methods for inhibiting the synthesis or expression of MMP-1” (Trustees of Dartmouth College, priority 2004, dated 2010)

Columns and labels:
[1] = tested on: MMP-1 mRNA; test: MMP-1 mRNA by real-time RT-PCR in transiently transfected NIH/3T3 cells; format: cell-based, human; settings: NIH/3T3 cells co-transfected with pCMV-MMP-1 and peGFP; 48 hours after transfection; normalized to eGFP mRNA; P=0.015
Method: Transfection of NIH/3T3 and MDA-231 Cells. NIH/3T3 cells were transiently transfected with LIPOFECTAMINE™ 2000 (INVITROGEN™, Carlsbad, Calif.) along with 0.5 μg peGFP, 0.5 μg pCMV-MMP-1, and 2 μg PSUPER™-MMP-1 shRNA or PSUPER™ with no insert. Transfection efficiency was monitored using eGFP signal. Total cellular RNA was harvested 48 hours after transfection and analyzed for MMP-1 mRNA by real-time RT-PCR. MDA-231 cells were stably transfected in triplicate with LIPOFECTAMINE™ 2000 (INVITROGEN™, Carlsbad, Calif.) and 2 μg of the PSUPER™.Retro.Neo.GFP plasmid containing the MMP-1 shRNA, the scrambled sequence or just the empty vector. Stable cell lines were selected by growth in the presence of 1 mg/mL G418 (STRATAGENE®, La Jolla, Calif.). Individual, stable cell lines were isolated with cloning disks according to the manufacturer's instructions (PGC Scientifics, Frederick, Md.).
RNA Isolation and Real-Time RT-PCR.
To test the efficacy of the shRNA inhibition of MMP-1 expression, shRNA composed of SEQ ID NO:1 and SEQ ID NO:2 was cloned it into the PSUPER™ shRNA vector. Two PSUPER™ plasmids were used; one with the MMP-1 shRNA sequence to block MMP-1 gene expression, and one with only the plasmid vector. […]

[2] = tested on: MMP-2 mRNA; test: Specificity qRT-PCR, MMP-2 mRNA in stable MDA-231 cells; format: cell-based, human; settings: stable MDA-231 cell lines, 24 hour serum-free; group average ± S.D.; P=0.3 vs empty vector
From the text: (§1) RNA Isolation and Real-Time RT-PCR. […] Real-Time PCR Primer Sequences. […] ID NO:7; MMP-1 reverse [NT] ID NO:8; MMP-2 forward [NT] ID NO:9; MMP-2 reverse [NT] ID NO:10; MMP-9 forward [NT] ID NO:11; MMP-9 reverse [NT] ID NO:12; MMP-13 forward [NT], SEQ ID NO:13; MMP-13 reverse [NT] ID NO:14; MMP-14 forward [NT] ID NO:15; MMP-14 reverse [NT] ID NO:16; GAPDH forward [NT] ID NO:17; GAPDH reverse [NT] ID NO:18; eGFP forward [NT] ID NO:19; eGFP reverse [NT] ID NO:20. Real-Time PCR Standards.

[3] = tested on: MMP-13 mRNA; test: Specificity qRT-PCR, MMP-13 mRNA in stable MDA-231 cells; format: cell-based, human; settings: stable MDA-231 cell lines, 24 hour serum-free; group average ± S.D.; P=0.3 vs empty vector
From the text: as §1

[4] = tested on: MT1-MMP (MMP-14) mRNA; test: Specificity qRT-PCR, MT1-MMP (MMP-14) mRNA in stable MDA-231 cells; format: cell-based, human; settings: stable MDA-231 cell lines, 24 hour serum-free; group average ± S.D.; P=0.4 vs empty vector
From the text: as §1

[5] = tested on: MDA-231 cells; test: Cell proliferation assay (MTT); format: cell-based; settings: from 24 to 48 hours (in 24 hours); p=0.13 vs empty vector
Method: Cell Proliferation Assay. The proliferation rate of the stably transfected MDA-231 cell lines at 24 and 48 hours was determined with a MTT assay as described in the manufacturer's protocol (ATCC). The optimum cell count was 10,000 cells per well of a 96-well tissue culture dish.
Therefore, the only measured differences between the two groups of cell lines were the levels of MMP-1 mRNA and protein.

[6] = tested on: MDA-231 cells in type I collagen gel; test: In vitro collagen gel destruction assay; format: cell-based; settings: MDA-231 cells producing the shRNA
Method: In vitro Collagen Gel Destruction Assay. Collagen preparations were carried out on ice to prevent premature jelling. A solution of purified type I bovine collagen (Cohesion Technologies, Palo Alto, Calif.) was neutralized with a sterile 10× phosphate-buffered saline (pH 7.4), and 0.1 M NaOH. The solution of neutralized collagen (2 mg/mL) was mixed with an equivalent volume of cells suspended in serum free DMEM to yield a final concentration of 2×10^5 cells/mL in 1 mg/mL fibrillar collagen, and 1 mL of the collagen/cell mixture was added to each well of a six-well plate. After approximately 1 hour, the collagen jelled, and 1 mL of serum-free media was added on top of the gel. For some experiments, 25 μM ILOMASTAT® (CHEMICON®, Temecula, Calif.), 50 U/mL aprotinin (Sigma, St. Louis, Mo.), 1 μg/mL neutralizing MMP-1 antibody (MMP-1 ab-5; ONCOGENE™ Research Products, San Diego, Calif.), 1 μg/mL monoclonal FLAG® antibody (Sigma, St. Louis, Mo.), or 1% DMSO were added to the collagen before it jelled. After 36 hours of incubation at 37° C. the medium was removed from the top of collagen gels and weighed. The weight of media added at the start of the 37° C. incubation (1 gram) was subtracted from the total media weights to reveal the amount of media liberated by collagen gel destruction.
An in vitro collagen destruction assay was developed to determine whether the MMP-1 levels in MDA-231 cells with the empty vector were functionally capable of degrading a collagen matrix, and whether the shRNA-mediated reduction in MMP-1 was sufficient to change the invasive behavior of the cells. MDA-231 cells harboring either the empty vector or the MMP-1 shRNA were embedded in a solution of type I collagen (1 mL). The collagen was allowed to solidify at 37° C., and 1 mL of serum-free medium was layered on top of each gel. After 36 hours at 37° C., the medium was removed from each well and photographs were taken. No collagen was visible in wells containing MDA-231 cells with the empty vector. […] The medium removed from each well was weighed to quantitate the amount of medium liberated as the gel was destroyed. After 36 hours, approximately 1 mL (0.8±0.06 grams) of medium was liberated from the collagen gels containing the MDA-231 cells with the empty vector. […] Conversely, no medium (−0.01±0.03 grams) was liberated from collagen gels containing MDA-231 cells producing the MMP-1 shRNA. The slight decrease in the volume of medium recovered may be due to evaporation of the medium during the incubation period.

B1: MMP-1 shRNA: Vector-expressed small hairpin RNA, SEQ ID NO:1 (sense) and SEQ ID NO:2 (antisense), specific to bases 234-252 of MMP-1 mRNA (nucleic acid)
sense: GATCCCCACCAGATGCTGAAACCCTGTTCAAGAGACAGGGTTTCAGCATCTGGTTTTTTGGAAA
antisense: AGCTTTTCCAAAAAACCAGATGCTGAAACCCTGTCTCTTGAACAGGGTTTCAGCATCTGGTGGG
modifications: the letters are possibly those of the target site
MMP-1 mRNA levels lower than empty vector [1]: 73% | MMP-2 mRNA level [2]: 8.8 ± 7.8 copies of the target gene/pg GAPDH | MMP-13 mRNA level [3]: 0.5 ± 0.2 copies of the target gene/pg GAPDH | MT1-MMP mRNA level [4]: 107000 ± 46000 copies of the target gene/pg GAPDH | fold increase in metabolic activity [5]: 2.03±0.06 fold | appearance of collagen gel ([6]; 36 hours): appeared to be intact | medium liberated from collagen gels ([6]; 36 hours at 37° C.): −0.01±0.03 grams | collagen gel destruction ([6]; as long as five days): no collagen gel destruction
